Test system: Oc1ccccc1O
Experiment: cells, lysate or membranes
Conditions: catechol 0-150 µM, 35 °C, 50 mM phosphate pH 7.5 (general assay), O2 co-substrate, crude extract
[1] = C-terminally truncated (stop at 289)

C23Owt (catechol 2,3-dioxygenase from Planococcus sp. S5) (Planococcus sp. S5)
Km: 97.74 ± 10.91 µM | Vmax: 0.115 µmol/min/mg

C23Owt (catechol 2,3-dioxygenase from Planococcus sp. S5) (Planococcus sp. S5; C103R)
Km [1]: 66.17 ± 9.44 µM | Vmax [1]: 0.104 µmol/min/mg
